{
  "source": "paper PMC12421842",
  "target": "T1, HicB (HicB-His) (Neisseria gonorrhoeae FA1090) (UniProt Q5F6D2)",
  "T1 sequence": "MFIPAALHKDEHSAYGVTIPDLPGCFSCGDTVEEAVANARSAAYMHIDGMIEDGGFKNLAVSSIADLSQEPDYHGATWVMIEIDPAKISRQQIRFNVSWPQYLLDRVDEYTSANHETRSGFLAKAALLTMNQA",
  "assay": "competition",
  "settings": "EMSA: 20 mM HEPES pH 7.6, 1 mM EDTA, 10 mM (NH4)2SO4, 1 mM DTT, 0.2% Tween-20, 30 mM KCl, 1.25 ng/uL calf thymus DNA, 30 min at 30 C",
  "data": [
    {"sequence": "TTCACCCTTGCCTGTGCTGCCAAAGCAGCCATCGGCGGTTTTGCTTTCTGTTCCACTTTCCGTCGCGTTACCGCGCCCGGCCGTTAACCGGCATTCTACCCTGCGGAGCCCGGACTTTCCTCCCCGTAT (double strand) [rnpB fragment]", "values": [
      {"measurement": "binding", "value": "no binding"}
    ]}
  ]
}
